# Laboratory results reported in patent US12214052 (HOSPITAL FOR SICK CHILDREN, dated 2025).
# T1: NANP 5-mer peptide (NANP5) (Plasmodium falciparum)
# T1 peptide: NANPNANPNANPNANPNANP
# Target: T1, NANP 5-mer peptide (NANP5)
# Assay: ITC
# Procedure: Calorimetric titration experiments were performed with an Auto-iTC200 instrument (Malvern) at 25° C. Proteins were dialyzed against 20 mM Tris pH 8.0 and 150 mM sodium chloride overnight at 4° C. […] Experiments were performed at least three times and the mean and standard error of the mean were reported (FIG. 30). The experimental data were analyzed according to a 1:1 binding model by means of Origin 7.0.
row,Binder,binding stoichiometry
1,"1210 Fab (Fab, V domains shown) VH: QVQLVESGGGVVQPGRSLRLSCAASGFTFSNYGMHWVRQAPGKGLEWVAVIWYDGSKKYYADSVKGRFTISRDNSKNTLYLQMNSLRAEDTAVYYCARVRDSSDYYGDAFDIWGQGTMVTVSS VL: DIQMTQSPSTLSASVGDRVTITCRASQSISSWLAWYQQKPGKAPKLLIYKASNLESGVPLRFSGSGSGTEFTLTISSLQPDDFATYYCQQYNNYWTFGQGTKVEIK",~2
2,"1210_GL Fab (Fab, V domains shown) VH: QVQLVESGGGVVQPGRSLRLSCAASGFTFSSYGMHWVRQAPGKGLEWVAVIWYDGSNKYYADSVKGRFTISRDNSKNTLYLQMNSLRAEDTAVYYCARVRDSSDYYGDAFDIWGQGTMVTVSS VL: not shown",~2
3,"1210 H.D100Ymut_K.N92Ymut (1210_YY) Fab (Fab, V domains shown) VH: QVQLVESGGGVVQPGRSLRLSCAASGFTFSNYGMHWVRQAPGKGLEWVAVIWYDGSKKYYADSVKGRFTISRDNSKNTLYLQMNSLRAEDTAVYYCARVRDSSYYYGDAFDIWGQGTMVTVSS VL: DIQMTQSPSTLSASVGDRVTITCRASQSISSWLAWYQQKPGKAPKLLIYKASNLESGVPLRFSGSGSGTEFTLTISSLQPDDFATYYCQQYYNYWTFGQGTKVEIK",~2
4,"1210_H.K56_Nrev_K.N93_Srev (1210_NS) Fab (Fab, V domains shown) VH: QVQLVESGGGVVQPGRSLRLSCAASGFTFSNYGMHWVRQAPGKGLEWVAVIWYDGSNKYYADSVKGRFTISRDNSKNTLYLQMNSLRAEDTAVYYCARVRDSSDYYGDAFDIWGQGTMVTVSS VL: DIQMTQSPSTLSASVGDRVTITCRASQSISSWLAWYQQKPGKAPKLLIYKASNLESGVPLRFSGSGSGTEFTLTISSLQPDDFATYYCQQYNSYWTFGQGTKVEIK",~2
